From patent publication US20220010008A1 (SHANGHAI PHARMAEXPLORER, published 2022)
Residue numbers refer to the chain shown, from its start. Each block holds one binder with its values, some of them ahead of it.

Key:
mouse IL-5 [1] = molecular target: T1, mouse IL-5 (mouse, UniProt P04401 21-133); assay: ELISA on mouse IL-5; antibody 0.0002 nM
T1 construct: Source and construct of the mouse IL-5 are not described; also called mouse IL-5 protein
T1 sequence (looked up): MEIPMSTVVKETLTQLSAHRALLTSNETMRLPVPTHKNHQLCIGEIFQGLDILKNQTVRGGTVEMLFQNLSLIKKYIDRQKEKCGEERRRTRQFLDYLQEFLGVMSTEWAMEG
Method: (§1) The titer of antibody reacting with human IL-5 protein and the cross reaction with mouse and monkey IL-5 protein were detected and analyzed by enzyme-linked immunosorbent assay (ELISA). Streptavidin was diluted with PBS to a final concentration of 1.0 μg/ml, and then added to a 96-well enzyme-labeled plate as 100 microliters per well. The plate was incubated at 4° C. overnight. On the second day, the plate was washed twice with washing solution (PBS+0.01% Tween20). The blocking solution (PBS+0.05% Tween20+2% BSA) was added for blocking at 37° C. for 1-2 hours. Then the blocking solution was discarded. The biotin-labeled human IL-5 was diluted with sample diluent (PBS+0.05% Tween20+0.2% BSA) to 0.5 μg/ml, and added to an enzyme-labeled plate at 50-100 microliters per well, and incubated at 37° C. for 1 hour. The plate was washed with plate washing solution (PBS+0.05% Tween 20) for 2-3 times. 50-100 microliters of antibody samples to be tested were added to each well, and incubated at 37° C. for 1 hour. Then the plate was washed with plate washing solution (PBS+0.05% Tween20) for 2-3 times. The horseradish peroxidase labeled secondary antibody against human or mouse IgG was added, and reacted at 37° C. for 1 hour. The plate was washed with plate washing solution (PBS+0.05% Tween 20) for 2-3 times. […] The value of O.D. 450 nm was read by ELISA plate reader (SpectraMax M5e, Molecular Device).

[2] = molecular target: recombinant human IL-5 protein with His tag (human, UniProt P05113 20-134, limits assumed, biotin-labeled in the ELISA and in the receptor blocking assay (site not stated)); assay: cell-based or functional assay
mouse IL-5 [3] = molecular target: T2, mouse IL-5 (mouse, UniProt P04401 21-133); assay: ELISA, mouse IL-5, Ab 0.0002 nM
T2 sequence (looked up): T1 sequence (looked up)
Method: as §1, with “times.” for “times. The horseradish peroxidase labeled secondary antibody against human or mouse IgG was added, and reacted at 37° C. for 1 hour. The plate was washed with plate washing solution (PBS+0.05% Tween 20) for 2-3 times.”
(§2) The titer of chimeric antibody reacting with human IL-5 protein and the cross reaction with mouse and monkey IL-5 protein were detected and analyzed by enzyme-linked immunosorbent assay (ELISA). […]

mouse IL-5 [4] = molecular target: T2, mouse IL-5; assay: ELISA, mouse IL-5, Ab 0.0043 nM
Method: as §1, with “times.” for “times. The horseradish peroxidase labeled secondary antibody against human or mouse IgG was added, and reacted at 37° C. for 1 hour. The plate was washed with plate washing solution (PBS+0.05% Tween 20) for 2-3 times.”
as §2

recombinant monkey IL-5 [5] = molecular target: T3, recombinant monkey IL-5 (monkey (cynomolgus macaques)); assay: ELISA, monkey IL-5, Ab 0.0002 nM
Method: as §1, with “times.” for “times. The horseradish peroxidase labeled secondary antibody against human or mouse IgG was added, and reacted at 37° C. for 1 hour. The plate was washed with plate washing solution (PBS+0.05% Tween 20) for 2-3 times.”
as §2

recombinant monkey IL-5 [6] = molecular target: T3, recombinant monkey IL-5; assay: ELISA, monkey IL-5, Ab 0.0043 nM
Method: as §1, with “times.” for “times. The horseradish peroxidase labeled secondary antibody against human or mouse IgG was added, and reacted at 37° C. for 1 hour. The plate was washed with plate washing solution (PBS+0.05% Tween 20) for 2-3 times.”
as §2

[7] = molecular target: recombinant human IL-5 protein (human, UniProt P05113 20-134, limits assumed); assay: cell-based or functional assay

OD450 nm (mouse IL-5 [1]): 0.049
B1: 69F2F3 (murine hybridoma antibody) (antibody, V domains shown)
VH: QVQLKQSGPGLVQPSQSLSITCTVSGFSLSNYGVHWVRQSPGKGLEWLGVIWSGGSTDYNAAFKSRLSITKDNSKSQVVFRMNSLQTDDTATYYCARNKDFLDYWGQGTKFTVSS
VL: DIVMTQSPSSLTVTAGEKVTMTCKSSQGLLNSGNQKNYLTWYQQKPGQPPKLLIYWASTRESGVPDRFTGSGSGTDFTLTISSVQAEDLAVYYCQNDYHFPLTFGAGTKLELK
notes: Mouse monoclonal antibody from hybridoma, purified on Protein G; also called lead antibody; antibody number 3

TF1 (IC50), TF1 proliferation induced by IL-5 [2]: ~1 pM
B2: 102A2E11B6 (as tested in Example 9, format not stated) (antibody, V domains shown)
VH: QVQLRQSGPGLVQPSQSLSITCTVSGFSLTSYGVHWVRQSPGKGLEWLGVIWSGGSTDYNAVFMSRLSISKDSSKSQVFFKMNSLQTDDTAIYYCARNRYVLDYWGQGTSVTVSS
VL: DIVMTQSPSSLSVSAGERVTMRCKSSQSLLTSGDQKNHLAWYQQKPGQPPKLLIYGASTRESGVPDRFTGSGSGTDFTLTITSVQAEDLAVYYCQNDHSFPLTFGAGTKLELK

OD450 nm (mouse IL-5 [3]): 0.046 OD450 nm | OD450 nm (mouse IL-5 [4]): 0.069 OD450 nm
B3: 102A2E11B6 mouse-human chimeric antibody (antibody, V domains shown)
VH: B2 VH
VL: B2 VL

TF1 (IC50), TF1 proliferation induced by IL-5 [2]: ~1 pM
B4: 147D7H2 (as tested in Example 9, format not stated) (antibody, V domains shown)
VH: EVQLQQSGAELVKPGASVKLSCTASGFNIKDYFIHWVKQRTEQGLEWIGRIDTEDGETKYAPKFQGKATITIDTSSNTAYLYFSSLTSEDTAMYYCARYGNYVAMDYWGQGTSVTVSS
VL: QIVLTQSPALMSASPGEKVTMTCSASSSVSYMFWYQQKPSSSPKPWIYLTSKLASGVPARFSGSGSGTSYSLTISSVEAEDAATYYCQQWNSNPYTFGGGTKLEIK

TF1 (IC50), TF1 proliferation induced by IL-5 [2]: ~1 pM
B5: 151G3B11 (as tested in Example 9, format not stated) (antibody, V domains shown)
VH: EVHLQQSGAELVKPGASVKLSCTASGFNIKDYYMHWVKQRTEQGLEWIGRIDPEDGETKYAPKFQGQATITADTSSNTANLQLSSLTSEDTAVYYCARYGNFPDYWGPGTTLTVSS
VL: B4 VL with F33Y, S40R, V77M

OD450 nm (recombinant monkey IL-5 [5]): 0.093 OD450 nm | OD450 nm (recombinant monkey IL-5 [6]): 0.092 OD450 nm
B6: 147D7H2 mouse-human chimeric antibody (antibody, V domains shown)
VH: B4 VH
VL: B4 VL

TF1 (IC50, nM) [7]: 0.002 nM
B7: 147D7H2 (as tested in Example 9; murine or chimeric form not stated) (antibody, V domains shown)
VH: B4 VH
VL: B4 VL
